Laboratory results reported in patent publication US7271245B2, “Methods and compositions for inhibition of metastasis” (The Scripps Research Institute, priority 2004, dated 2007).

Tests used:
[1] = test system: Integrin αIIβ3 mediated adhesive platelet functions; experiment: Platelet adhesion and thrombus formation during blood perfusion; format: cell-based, human; conditions: 3 μM scFv
Description: Tumor cell arrest during bloodflow. Breast cancer cell arrest during blood flow and interaction with platelets was measured as described. Felding-Habermann, et al., Proc. Natl. Acad. Sci. U.S.A 98: 1853-1858, 2001. Felding-Habermann et al., J. Biol. Chem. 271: 5892-5900, 1996. Briefly, tumor cells were suspended in human blood anticoagulated with 50 nM PPACK and perfused over a collagen I matrix at a venous wall shear rate of 50 s^−1, 2 dynes/cm^2. Adhesive events and cell interactions were visualized and recorded by fluorescence video microscopy and quantified by image acquisition at 30 predefined positions followed by computerized image analysis (MetaMorph, Universal Imaging). Tumor cells were stained with hydroethidine (red fluorescence) (20 μg/ml, 30 min, 37° C.), washed, and mixed with blood containing 10 μM mepacrine (green fluorescence). Blood cells, tumor cells, and platelets acquired green fluorescence and were visualized at 488/515 nm (excitation/emission). Tumor cells were identified by their unique red fluorescence at 543/590 nm. To test inhibition, tumor cells were incubated with 3 μM scFv for 5 min at 37° C., then mixed into blood, scFv added to 3 μM final concentration and perfused immediately.
In the circulation, metastatic tumor cells are intensely exposed to a cancer patient's immune surveillance, encountering potential function blocking antibodies like Bc-12 and Bc-15. […]

BMS breast cancer cells = experiment: Antibody internalization (confocal microscopy); format: cell-based, human; conditions: FITC-labeled scFv, permissive temperature (37° C.)
Description: FIGS. 3A, 3B, 3C, 3D, 3E. scFv Bc-12 and Bc-15 inhibit αvβ3 mediated adhesive breast cancer cell functions. (A) Adhesion of BMS human breast cancer cells to fibrinogen (Fg), vitronectin (VN) or type I collagen (Col I) in the absence or presence of 3 μM Bc-12, Bc-15 or their RGE mutants Mut-12, Mut-15, compared to 200 μM GRGDSPK peptide (SEQ ID NO: 11). Protein coating concentrations: 10 μg/ml (VN, Col I) or 20 μg/ml (Fg). Adhesion time: 30 min at 37° C. (B) Effect of scFvs on haptotactic BMS cell migration toward a fibrinogen substrate (16 hrs at 37° C. in transwell chambers with or without 2 μM Bc-12, Bc-15 or their RGE mutants Mut-12 or Mut-15, compared to 200 μM GRGDSPK peptide) (SEQ ID NO: 11). (C) Effect of scFvs on breast cancer cell arrest during blood flow. […] Tumor cell adhesion was quantified by image acquisition at 30 predefined positions during blood flow. Left: representative images of platelet signal (thrombi, green fluorescence) and tumor cell signal (red fluorescence) at identical x,y positions. […]
Antibody internalization. Breast cancer cells grown in chamber slide wells were incubated with 20 μg/ml FITC-labeled scFv in serum free EMEM for 3 h either at 4° C. or 37° C., washed 10 times, fixed and permeabilized with 95% ethanol, stained with propidium iodide, mounted in antifade solution, and analyzed with a laser scanning confocal microscope.

[2] = test system: BMS human breast cancer cells; experiment: Haptotactic tumor cell migration toward fibrinogen (transwell); format: cell-based; conditions: 2 μM scFv, 16 hrs at 37° C.
Description: FIGS. 3A, 3B, 3C, 3D, 3E. scFv Bc-12 and Bc-15 inhibit αvβ3 mediated adhesive breast cancer cell functions. (A) Adhesion of BMS human breast cancer cells to fibrinogen (Fg), vitronectin (VN) or type I collagen (Col I) in the absence or presence of 3 μM Bc-12, Bc-15 or their RGE mutants Mut-12, Mut-15, compared to 200 μM GRGDSPK peptide (SEQ ID NO: 11). Protein coating concentrations: 10 μg/ml (VN, Col I) or 20 μg/ml (Fg). Adhesion time: 30 min at 37° C. (B) Effect of scFvs on haptotactic BMS cell migration toward a fibrinogen substrate (16 hrs at 37° C. in transwell chambers with or without 2 μM Bc-12, Bc-15 or their RGE mutants Mut-12 or Mut-15, compared to 200 μM GRGDSPK peptide) (SEQ ID NO: 11). (C) Effect of scFvs on breast cancer cell arrest during blood flow. Metastatic BMS cells, labeled with hydroethidine, were suspended in human blood (anticoagulated with 50 nM PPACK) and perfused over a collagen I matrix at a venous wall shear rate of 50 s^−1. Under these conditions, breast cancer cells arrest by αvβ3 mediated binding to adherent, thrombus forming platelets. Tumor cell adhesion was quantified by image acquisition at 30 predefined positions during blood flow. Left: representative images of platelet signal (thrombi, green fluorescence) and tumor cell signal (red fluorescence) at identical x,y positions. Right: Number of arrested tumor cells in the presence of 3 μM non-function blocking anti αv scFv Bc-20 or function blocking anti αvβ3 scFvs Bc-12 or Bc-15. (D) scFv Bc-15 is internalized by human breast cancer cells and reduces cell proliferation. Left: confocal images of BMS cells incubated for 4 hrs with FITC-Bc-15 at 4° C. (binding) versus 37° C. (allowing internalization). Right: Phase contrast images of BMS cell cultures 4 days after seeding in the presence of 2 μM RGE containing scFv Mut-15, or RGD containing Bc-15. […]
Cell adhesion and migration. Tumor cell adhesion under stationary conditions was analyzed as detailed earlier (19). […] Haptotactic tumor cell migration toward fibrinogen was analyzed in transwell chambers as detailed earlier. […]

Row | Molecule | adhesive platelet functions [1] | binding and internalization by adherent cells (BMS breast cancer cells) | fibrinogen directed migration [2]
1 | Bc-12: patient derived human scFv antibody against activated αvβ3 with RGD motif in CDR-H3; cDNA ATCC PTA-6303 (protein) scFv: MAQVQLVQSGAEVKKPGASVKVSCKASGYTFSNYGITWVRQAPGQGLEWMGWINNGNTHYAQKFQGRVTMTTDTSTSTAYMELRSLRSDDTAVYYCARDPRGDDEPYWGQGTLVTVSSGGGGSGGGGSGGGGSEIVLTQSPLSLPVTLGQPASISCRSSQNLVYSDGNTYLSWFQQRPGQSPRRLIYKVSNRDSGVPDRFSGSGSGTDFTLKISRVEAEDIGVYYCMQGTHWPPRTFGQGTKVEIKRGLGGLVDYKDDDDK | not affected | efficiently bound and readily internalized | inhibited BMS human breast cancer cell migration almost completely
2 | Mut-12: RGE containing mutant version of scFv Bc-12 (protein) MAQVQLVQSGAEVKKPGASVKVSCKASGYTFSNYGITWVRQAPGQGLEWMGWINNGNTHYAQKFQGRVTMTTDTSTSTAYMELRSLRSDDTAVYYCARDPRGEDEPYWGQGTLVTVSSGGGGSGGGGSGGGGSEIVLTQSPLSLPVTLGQPASISCRSSQNLVYSDGNTYLSWFQQRPGQSPRRLIYKVSNRDSGVPDRFSGSGSGTDFTLKISRVEAEDIGVYYCMQGTHWPPRTFGQGTKVEIKRGLGGLVDYKDDDDK | – | – | only a minor effect
